The source of these data is US20250270343A1 (Alector, published 2025).

The chains are these.
B1: soluble mouse GPNMB-Fc polypeptide (Fc of human IgG1 or mouse IgG2A, not specified for the assay) (Fc fusion, UniProt Q99P91 23-502, looked up)
chain: KRFRDVLGHEQYPDHMREHNQLRGWSSDENEWDEHLYPVWRRGDGRWKDSWEGGRVQAVLTSDSPALVGSNITFVVNLVFPRCQKEDANGNIVYEKNCRNDLGLTSDLHVYNWTAGADDGDWEDGTSRSQHLRFPDRRPFPRPHGWKKWSFVYVFHTLGQYFQKLGRCSARVSINTVNLTAGPQVMEVTVFRRYGRAYIPISKVKDVYVITDQIPVFVTMSQKNDRNLSDEIFLRDLPIVFDVLIHDPSHFLNDSAISYKWNFGDNTGLFVSNNHTLNHTYVLNGTFNLNLTVQTAVPGPCPPPSPSTPPPPSTPPSPPPSPLPTLSTPSPSLMPTGYKSMELSDISNENCRINRYGYFRATITIVEGILEVSIMQIADVPMPTPQPANSLMDFTVTCKGATPMEACTIISDPTCQIAQNRVCSPVAVDGLCLLSVRRAFNGSGTYCVNFTLGDDASLALTSTLISIPGKDPDSPLRAVN
notes: extracellular domain; also called moGPNMB-Fc; mGPNMB; not shown: Fc region of human IgG1 or mouse IgG2A; in the Fab2 assay detected with anti-human IgG1 secondary antibody

Experiment [1] addresses T1, unidentified GPNMB ligand(s) on the surface of NHLF cells.
T1 construct: written like m62, for NHLF cells; also called Normal Human Lung Fibroblast Cells
The experiment in a line: flow cytometry, titration of soluble moGPNMB-Fc on normal human lung fibroblasts; MFI-APC against concentration (ug/mL). The source says: The extracellular domain of GPNMB protein contains putative protein- or carbohydrate-binding domains capable of recognizing various ligands on the cell surface. […] Soluble mouse GPNMB-Fc polypeptide, consisting of the extracellular domain of mouse GPNMB and an Fc region of human IgG1 or mouse IgG2A (R&D System) (moGPNMB or mGPNMB) was used to confirm the binding activity of GPNMB towards different cell lines. Binding properties of soluble moGPNMB-Fc were examined by flow cytometry. Different cell lines (mouse SVEC4-10 cells, normal human lung fibroblasts (NHLF), mouse astrocytes, and human astrocytes were nonenzymatically harvested, plated at 100,000 cells/well, and incubated with increasing concentrations moGPNMB-Fc or control human IgG1 or control mouse IgG2A, in binding buffer (Hanks' balanced salt solution containing 1.3 mM CaCl₂, 0.8 mM MgSO₄, 3% fetal calf serum, and 10 mM HEPES) for 30 min on ice.
[…] Binding of soluble moGPNMB-Fc to cells was examined by FACSCanto (Becton Dickinson, San Jose, CA). In some experiments, the binding was performed in the presence of known GPNMB binding inhibitors (heparin, dextran sulfate, all purchased from Sigma).

The target in experiment [2] is T2, soluble human GPNMB-Fc polypeptide (human, UniProt Q14956 23-498, limits assumed).
T2 construct: also called huGPNMB-Fc; not shown: Fc domain
T2 sequence (looked up): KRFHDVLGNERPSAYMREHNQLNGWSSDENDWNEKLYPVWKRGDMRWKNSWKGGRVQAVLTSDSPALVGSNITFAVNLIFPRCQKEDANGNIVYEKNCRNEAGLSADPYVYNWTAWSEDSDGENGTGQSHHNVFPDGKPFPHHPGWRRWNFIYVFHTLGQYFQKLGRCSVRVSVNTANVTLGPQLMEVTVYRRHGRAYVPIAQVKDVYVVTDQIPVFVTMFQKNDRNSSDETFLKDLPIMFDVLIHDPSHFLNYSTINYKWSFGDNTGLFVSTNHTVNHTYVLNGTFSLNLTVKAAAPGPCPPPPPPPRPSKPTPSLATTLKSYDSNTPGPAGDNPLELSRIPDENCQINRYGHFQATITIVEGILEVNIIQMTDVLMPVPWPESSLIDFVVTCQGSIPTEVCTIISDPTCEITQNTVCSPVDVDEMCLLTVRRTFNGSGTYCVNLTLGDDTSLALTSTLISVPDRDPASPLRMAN
The experiment in a line: FACS, Fab2 blocking huGPNMB-Fc binding to SVEC4-10 cells. Here is the method:
(§1) Purified recombinant Fab2 fragments of select anti-GPNMB antibodies of the present disclosure were produced through transient transfection and purified. Briefly, 2 ug/mL soluble mouse or human GPNMB-Fc diluted in binding buffer was pre-complexed with increasing concentrations of anti-GPNMB Fab2 fragments in 96-well plates. Subsequently, 100,000 SVEC4-10 cells were added per well and incubated on ice for 30 minutes. Soluble moGPNMB-Fc or huGPNMB-Fc bound to cell surface was detected with fluorescent anti-human IgG1 secondary antibody and measured on FACSCanto. IC50 and EC50 values based on changes in MFI values were calculated for each antibody.

For experiment [3], the target named is B1. The experiment in a line: FACS, Fab2 blocking moGPNMB-Fc binding to SVEC4-10 cells. Here is the method:
as §1

The target of experiment [4] is T2, soluble human GPNMB-Fc polypeptide. The experiment in a line: FACS, Fab2 enhancing huGPNMB-Fc binding to SVEC4-10 cells. Here is the method: as §1
Experiment [5] addresses B1. The experiment in a line: FACS, Fab2 enhancing moGPNMB-Fc binding to SVEC4-10 cells. Here is the method: as §1
The target in experiment [6] is B1. The experiment in a line: FACS ligand binding assay: 2 ug/mL moGPNMB-Fc pre-complexed with rising Fab2, then SVEC4-10 cells; blocked ligand: unidentified ligand(s) on SVEC4-10 cells; bound GPNMB-Fc detected with anti-human IgG1 secondary. Here is the method: as §1

For the molecule B1, the “EC50 (read off the curve)” value in experiment [1] is around 0.1 µg/mL.

B2: recombinant Fab2 fragment of anti-GPNMB antibody GPN-35 (other)
VH: EVQLVESGGGSVRPGRSLKLSCAAAGFTFSDYYMTWVRQAPTKGLEWVASINHDGGGTYYRDSVKGRFTISRDNARSSLYLQMDSLRSEDTGTYYCTTRAGWHWGQGVMVTVSS
VL: DIQMTQSPASLSASLGETVSIECLASEDIYNYLTWYQQKPGKSPQVLIYSASGLQDGVPSRFSGSGSGRQYSLKINGLESEDAATYFCLQDSEYPLTFGSGTKLEIK
notes: also called GPN-35 Fab2
For B2, the IC50 in experiment [2] was found to be 5.08 nM; in experiment [3] it was 4.05 nM.

B3: recombinant Fab2 fragment of anti-GPNMB antibody GPN-65 (other)
VH: QLQLQQSGTEVVKPGASVKIPCKASGYAFSSYWMNWVKQRPGKGLEWIGQIYPGDGDTNDNGKFEGKATLTVDKSSNTAYIQLSSLTSEDSAVYFCARSPLHLRGSMDYWGQGTSVTVSS
VL: SIVMTQTPKFLLVSAGDRVTITCKASQSVSNDVAWFQQKPGQSPELLIYSASNRYTGVPDRFTGSGYGTDFTFTISTVQAEDLAVYFCQQNYYSPFTFGGGTRLEIK
notes: also called GPN-65 Fab2
As for B3, the values for the EC50 in experiment [4] and in experiment [5] were 0.83 nM and 0.38 nM, respectively.

B4: recombinant Fab2 fragment of anti-GPNMB antibody GPN-41 (other)
VH: QLQLQQSGTEVVKPGASVKIPCKASGYAFSSYWMNWVKQRPGKGLEWIGQIYPGDGDTNDNGKFEGKATLTVDKSSNTAYIQLSSLTSEDSAVYFCARSPLHLRGSMDYWGQGTSVTVSS
VL: SIVMTQTPKFLLVSAGDRVTITCKASQSVSNDVAWFQQKPGQSPELLIYSASNRYTGVPDRFTASGYGTDFTFTISAVQAEDLAVYFCQQNYYSPFTFGGGTRLEIK
notes: also called GPN-41 Fab2
For the molecule B4, in experiment [6], the “IC50 (read off the curve)” value is around 4000 nM.

B5: recombinant Fab2 fragment of anti-GPNMB antibody GPN-37 (other)
VH: EVQLVESGGGLVQPGRSLKLSCAASGFTFSSKSGMAWVRQAPTKGLEWVASISNGGGDTYYRDSVKGRFTISRDNAKNTQYLQMDSLRPEDTATYYCARHRDYGYDAYFDYWGQGVMVTVSS
VL: DIQMTQSPASLSASLGETVTIECLASEDIYSSLAWYQQKPGKSPQLLIYDASSLQDGVPSRFSGSESGTQYSLEINSLQSEDAATYFCQQHHDYPYTFGAGTKLELK
notes: also called GPN-37 Fab2
For B5, the IC50 in experiment [2] is 9.49 nM.

B6: recombinant Fab2 fragment of anti-GPNMB antibody GPN-38 (other)
VH: QVQLQQPGAELVRPGTSVRLSCKASGYTFTSYWIHWVKQRPGRGLEWIGVIDPSDSYTNYNQQFNVKATLTVDTSSSAAYMQLSSLTSEDSAVYYCARGLITAVNWYFDVWGTGTTVTVSS
VL: DIQMTQSPASLSTSVGEIVTITCRASENIYSYLTWYQQKQGKSPQLLVYNAKTLAEGVPSRFSGSGSGTQFSLKINSLQPEDFGTYYCQHHYGTPLTFGSGTKLEIK
notes: also called GPN-38 Fab2
B6: the 50% effective concentration (EC50) amounted to 2.15 nM in experiment [4] and 5.83 nM in experiment [5].
